Reference: article PMC7108782, “Direct interaction of metastasis-inducing S100P protein with tubulin causes enhanced cell migration without changes in cell adhesion” (Biochemical Journal, 2020)
Read-outs that look alike come from different tables or passages of the source.

Columns and labels:
α,β-tubulin = test: SPR binding of S100P to immobilised α,β-tubulin; set-up: species or system human; settings: for Kd: mean ± SE, 3 experiments
Excerpt: The coding sequences for full length (human) α-tubulin and for N-terminal and C-terminal halves of α or β-tubulin were generated using PCR with specific primers shown in Supplementary Table S1 and sub-cloned into pET16(b) for expressing and purifying His-tagged full-length α-tubulin and His-tagged tubulin fragments in E. coli, as described previously. β-tubulin was purchased from Abcam.
For SPR binding assays, α,β-tubulin proteins described earlier were immobilised on a carboxymethylated dextran surface of a CM5 chip using BS^3 for use in Biocore X100. Recombinant S100P produced as described previously was used as a ligand in different concentrations at 20, 50, 100, 200, 1000, 2000 nM for calculation of the equilibrium dissociation constant (Kd) from the association/dissociation rate constants and from the extent of binding near equilibrium (Supplementary Table S2), as described previously. To detect the effects of tubulin peptides on the interaction of tubulin, different concentrations of tagged and untagged peptides were mixed with 1 µM S100P first and the mixtures were then applied to the tubulin-coated chip. The relative changes in kinetics and binding extents with different peptides were calculated using software provided by the manufacturer.

HeLa cells = settings: inducible HeLa (range stated for Rama 37 and HeLa) ref [10],[37]; cited from earlier work
Excerpt: (§1) In our previous study, we reported that S100P enhances cell migration by binding to and affecting distribution of NMIIA filaments in HeLa and Rama 37 cells. We now sought to determine whether S100P overexpression could induce such changes in cells when NMIIA was absent. The monkey kidney COS-7 cells have been reported to lack NMIIA [28] and this was confirmed in comparison with its presence in human HeLa and rat Rama 37 cells (Figure 1A). We then generated three S100P-inducible COS-7 cell lines using doxycycline as the inducing agent, the largest increase being in clone S10 (Figure 1B ...

Rama 37 cells = settings: inducible Rama 37 (range stated for Rama 37 and HeLa) ref [10],[37]; cited from earlier work
Excerpt: as §1

HeLa-A3 cells = test: S100P-enhanced cell migration, HeLa-A3; type: cell-based, human; settings: HeLa-A3, doxycycline 1 µg/ml, 24 h
Excerpt: Cell migration rate (%) = M/G × 100.

COS-7 S10 cells = test: Immunofluorescence of MTOC and EB3 bundles; type: cell-based, monkey; settings: COS-7 S10, S100P induced
Procedure: Immunofluorescent staining was carried out as previously described. COS-7 S10 and MCF-7 cells were induced for 48 h prior to plating at 25,000 cells/well onto either untreated or fibronectin-coated (2.5 µg/cm^2) glass coverslips in a 24-well plate. After a further 48 h, cells were washed once in Cytoskeleton Buffer (CB: 150 mM NaCl, 5 mM MgC1_2, 5 mM EGTA, 5 mM glucose, 10 mM 2-(N-morpholino) ethanesulfonic acid, pH 6.1) prior to fixing with 3.7% (w/v) paraformaldehyde in CB at 37°C for 20 min. Cells were permeabilised with 1% (v/v) Triton X-100 in CB for 2 min and blocked with 5% (v/v) goat serum in CB for 60 min before incubation with rabbit anti-EB3 (Abcam ab157217) and mouse anti-α-tubulin (Sigma T5168) (dilution between 1/400 and 1/500) in 1% (v/v) goat serum in CB for 60 min at room temperature. […] Quantification of the presence of EB3 clusters at the cell periphery or well-defined MTOC was performed by counting the number per cell in about 100 cells selected at random. […] For MTOC quantification, cells and MTOC were graded as shown in Figure 4C′ where organisation is defined as (1) not visible or poorly structured organisation; (2) visible but poorly formed; (3) visible and defined; and (4) well defined and extensive regions. […]

[1] = tested on: tubulin polymerisation in COS-7 S10 cells; test: In vivo tubulin polymerisation assay, COS-7 / COS-7 S10; type: cell-based, monkey
Procedure: HeLa and S100P-inducible HeLa, COS-7 and S100P-inducible COS-7 cells were routinely cultured with or without doxycycline (1 µg/ml) and treated with 33 µM nocodazole for 24 h to synchronise the cells. Then the nocodazole was washed away (First release) and the synchronised cells were cultured in normal medium for 4 h to allow them to complete cell division. The nocodazole was then added again for 4 h to dissociate all the MTs. After this time, nocodazole was again removed by extensive washings (Second release) and tubulin was allowed to polymerise in the interphase of the cell cycle for different times. The cells were treated with buffer (10 mM Tris–HCl, 150 mM KCl, pH 7.4, 2% (v/v) Triton X-100) and the Triton-X100-insoluble tubulins (representing the newly formed MTs) were solubilised in Sample Buffer and quantified by Western blotting. To test the effect of tubulin-derived peptides, 20 µM T-DIC, T-DLV, T-IMN and tag-peptide alone (Supplementary Table S3) in 0.25% (v/v) DMSO as solvent, as well as the solvent control 0.25% (v/v) DMSO were added immediately after the second release in Sample Buffer and quantified at the different time points by Western blotting.

[2] = tested on: nonmuscle myosin (NM) isoforms; settings: ref [10]; cited from earlier work
Excerpt: Overexpression of S100P promotes breast cancer metastasis in animals and elevated levels in primary breast cancers are associated with poor patient outcomes.

B1: S100P: recombinant or doxycycline-induced overexpressed S100P protein (protein)
chain: MTELETAMGMIIDVFSRYSGSEGSTQTLTKGELKVLMEKELPGFLQSGKDKDAVDKLLKDLDANGDAQVDFSEFIVFVAAITSACHKYFEKAGLK
For B1, the “calcium concentration above which complex starts to form” value (α,β-tubulin; 0.15 M NaCl, 2 µM S100P) was “above 30 µM”, the “calcium concentration saturating the reaction” value (α,β-tubulin; 0.15 M NaCl, 2 µM S100P) was 0.2 mM and the Kd (α,β-tubulin; Kd from association/dissociation rate constants, 150mM NaCl, 0.5mM CaCl2, single cycle, S100P 20-2000 nM, CM5 chip, read-out: Kinetic dissociation constant Kd) was 120 ± 12 nM. For the same molecule, the Kd (α,β-tubulin; Kd from rate constants, 150mM NaCl, 0.5mM CaCl2, multiple cycles, read-out: Kinetic dissociation constant Kd) was 210 ± 90 nM, the “Kinetic dissociation constant Kd” value (α,β-tubulin; Kd from rate constants, 150M NaCl (so in the source), EDTA 5mM, multiple cycles, 1L = incalculably large) was 1 L and the Kd (α,β-tubulin; Kd from rate constants, 300M NaCl (so in the source), 0.5mM CaCl2, multiple cycles, read-out: Kinetic dissociation constant Kd) was 890 ± 90 nM. For the same molecule, the Kd (α,β-tubulin; Kd from rate constants, 500M NaCl (so in the source), 0.5mM CaCl2, multiple cycles, read-out: Kinetic dissociation constant Kd) was 8300 ± 700 nM, the “calcium concentration at saturation of binding” value (α,β-tubulin; SPR, Figure 2F-H) was 200 µM and the “Equilibrium dissociation constant Kd” value (α,β-tubulin; at or near equilibrium, 150M NaCl (so in the source), EDTA 5mM, multiple cycles, 1L = incalculably large) was 1 L. The Kd (α,β-tubulin; at or near equilibrium, 300M NaCl (so in the source), 0.5mM CaCl2, multiple cycles, read-out: Equilibrium dissociation constant Kd) was 1100 ± 160 nM, the “fold increase in migration on S100P overexpression” value (HeLa cells) was 3.2 to 4.8 fold and the “fold increase in migration on S100P overexpression” value (Rama 37 cells) was 3.2 to 4.8 fold. The S100P-enhanced cell migration (HeLa-A3 cells) was 3–4 folds, the “reduction in percentage of cells with EB3 bundles at periphery” value (COS-7 S10 cells) was 52% and the “reduction in percentage of well-defined MTOCs per cell” value (COS-7 S10 cells) was 31%. The “reduction in tubulin polymerisation on S100P induction” value ([1]; COS-7 S10, 4 h after second release, 1 µg/ml doxycycline) was about 30%, the “near steady-state reduction in biochemical assembly of MTs” value ([1]; Figure 5E, COS-7 S10) was 33% and the “order of interaction with NM isoforms” value [2] was “IIA > IIC > IIB”.
